Measured values as given in patent US6028055A, “Receptor selective BNP” (Genetech, Inc., priority 1997, dated 2000).

Tests used:
NPR-C = target: T1, NPR-C (Homo sapiens, UniProt P17342); assay: Measurement of binding affinities for NPR-C, membranes from stable 293 cell lines, 125I rat ANP displacement; set-up: unit not given here; settings: pure synthetic peptide vs 30 pM 125I rat ANP, 2 hours room temperature; duplicate points, three separate assays
T1 construct: expressed in transfected cells
T1 sequence (P17342 27-541): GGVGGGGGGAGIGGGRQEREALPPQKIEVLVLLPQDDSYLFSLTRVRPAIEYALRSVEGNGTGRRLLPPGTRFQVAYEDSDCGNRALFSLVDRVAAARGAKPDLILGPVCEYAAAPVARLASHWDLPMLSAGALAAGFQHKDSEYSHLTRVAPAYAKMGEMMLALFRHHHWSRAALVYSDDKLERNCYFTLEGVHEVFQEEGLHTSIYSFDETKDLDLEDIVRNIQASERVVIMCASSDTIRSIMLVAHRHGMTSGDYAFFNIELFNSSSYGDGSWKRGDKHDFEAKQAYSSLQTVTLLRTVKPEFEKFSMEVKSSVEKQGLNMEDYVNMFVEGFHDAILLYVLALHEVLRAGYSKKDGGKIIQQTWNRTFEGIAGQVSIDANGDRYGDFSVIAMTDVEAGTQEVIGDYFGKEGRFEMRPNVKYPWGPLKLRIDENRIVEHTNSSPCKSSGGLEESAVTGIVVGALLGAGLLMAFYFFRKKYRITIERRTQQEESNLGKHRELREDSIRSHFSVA
Protocol: (§1) Membrane Preparation Membranes from stable 293 cell lines expressing NPR-A (Lowe and Fendly (1992) J. Biol. Chem.) or NPR-C (Cunningham et al. (1994) supra) were prepared by removing the cells from tissue culture plates with 0.5MM EDTA in PBS, centrifuging at 225×g, 4° C., and resuspending in 50 mM Hepes Ph7.4, 1 mM EDTA, 1 mM DTT, 250 mM Sucrose, 0.7 μg/ml Pepstatin A, 0.5 μg/ml Leupeptin, 1 mM PMSF, 1 μM Phosphoramidon. The resuspended cells were homogenized for 30 seconds with a Brinkman polytron on setting 5. The homogenate was centrifuged in 30 ml corex tubes in Sorval HB-4 rotor at 400×(1500 rpm) for 10 minutes at 4° C. The supernatant was centrifuged again in screw cap polycarbonate tubes (Beckman 355618) at 100,000×g (31,500 rpm) for 30 minutes, 4° C. in a Beckman TI60 rotor. The pellet was resuspended in 50 mM Hepes, 0.1 mM EDTA, 5.0 mM MgCl2, 100 mM NaCl, 0.7μg/ml Pepstatin A, 0.5 μg/ml Leupeptin, 1 mM PMSF, 1 μM Phosphoramidon and homogenized again with 15 strokes in a Dounce homogenizer (Wheaton 7 ml, #357542). The membranes were passed through a 22 gauge needle several times before aliquoting into eppendorf tubes for storage at -80° C.
(§2) The binding was allowed to go for 2 hours at room temperature in 96 well U-bottomed microtiter polypropylene plates (Sigma M-4029) with gentle agitation. The bound hormone was separated from the free using a Packard Filtermate 196 cell harvester and 1% polyethyleneimine-saturated Packard unifilter-96 GF/B plates by vacuum filtration. The plates were dried under vacuum chamber for 10 minutes prior to adding 40 μl Microscint-20 scintillant and counting in a Packard Topcount scintillation counter. Each affinity represents points measured in duplicate within three separate assays.

NPR-A = target: T2, NPR-A (Homo sapiens, UniProt P16066); assay: Measurement of binding affinities for NPR-A, membranes from stable 293 cell lines, 125I rat ANP displacement; settings: pure synthetic peptide vs 30 pM 125I rat ANP, 2 hours room temperature; duplicate points, three separate assays
T2 construct: expressed in transfected cells
T2 sequence (P16066 33-1061): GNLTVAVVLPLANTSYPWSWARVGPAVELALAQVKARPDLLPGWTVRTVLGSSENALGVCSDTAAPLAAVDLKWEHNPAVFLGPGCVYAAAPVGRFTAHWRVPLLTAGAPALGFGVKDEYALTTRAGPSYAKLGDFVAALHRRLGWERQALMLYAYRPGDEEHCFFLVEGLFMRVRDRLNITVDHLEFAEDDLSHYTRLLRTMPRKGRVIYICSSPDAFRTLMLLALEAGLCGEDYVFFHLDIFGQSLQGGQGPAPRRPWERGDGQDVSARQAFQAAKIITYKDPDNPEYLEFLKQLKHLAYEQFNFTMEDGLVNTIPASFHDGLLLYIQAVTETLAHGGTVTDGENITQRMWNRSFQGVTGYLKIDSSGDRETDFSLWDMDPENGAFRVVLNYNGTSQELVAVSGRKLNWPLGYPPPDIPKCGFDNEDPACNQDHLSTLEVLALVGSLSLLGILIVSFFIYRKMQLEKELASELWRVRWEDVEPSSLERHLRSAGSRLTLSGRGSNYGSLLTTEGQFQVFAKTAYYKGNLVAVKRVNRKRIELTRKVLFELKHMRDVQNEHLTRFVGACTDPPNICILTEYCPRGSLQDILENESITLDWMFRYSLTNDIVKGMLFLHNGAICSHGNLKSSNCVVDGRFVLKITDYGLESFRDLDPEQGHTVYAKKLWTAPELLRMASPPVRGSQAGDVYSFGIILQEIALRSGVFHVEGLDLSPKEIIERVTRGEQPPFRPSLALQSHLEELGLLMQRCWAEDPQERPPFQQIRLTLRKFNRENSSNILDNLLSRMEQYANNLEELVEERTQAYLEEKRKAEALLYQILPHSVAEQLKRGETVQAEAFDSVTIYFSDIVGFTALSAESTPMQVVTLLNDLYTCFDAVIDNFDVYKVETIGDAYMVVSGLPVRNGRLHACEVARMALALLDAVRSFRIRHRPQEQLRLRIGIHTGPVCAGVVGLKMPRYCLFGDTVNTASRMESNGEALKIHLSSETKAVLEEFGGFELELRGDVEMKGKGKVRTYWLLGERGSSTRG
Protocol: as §1, §2

[1] = target: T3, NPR-C expressed in stable 293 cell lines (membranes) (human) (UniProt P17342); assay: competition with 30 pM 125I-rat ANP on membranes of 293 cells expressing NPR-C; unit not given
T3 sequence: T1 sequence (P17342 27-541)

[2] = target: human natriuretic peptide receptor-A expressed in 293 cells (human) (UniProt P16066); assay: competition with 30 pM 125I-rat ANP on membranes of 293 cells expressing NPR-A; unit not given
[3] = target: human natriuretic peptide receptor-A expressed in 293 cells (human, UniProt P16066); assay: as above
Protocol: as §1, with “µg/ml” for “μg/ml”, “µM” for “μM”, “MgCl_2,” for “MgCl2,”, “0.7µg/ml” for “0.7μg/ml”, “−80°” for “-80°”
as §2, with “µl” for “μl”

[4] = target: T4, NPR-C expressed in stable 293 cell lines (membranes) (human, UniProt P17342); assay: competition with 30 pM 125I-rat ANP on membranes of 293 cells expressing NPR-C; unit not given
T4 sequence: T1 sequence (P17342 27-541)
Protocol: as §1, with “µg/ml” for “μg/ml”, “µM” for “μM”, “MgCl_2,” for “MgCl2,”, “0.7µg/ml” for “0.7μg/ml”, “−80°” for “-80°”
as §2, with “µl” for “μl”

Chain of hBNP Ser19Arg (SEQ ID NO: 4) (peptide) (peptide): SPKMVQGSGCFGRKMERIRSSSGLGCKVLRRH

For “hBNP Gly23Phe, Leu24Trp, Gly25Arg (SPKMVQGSGCFGRKMERISSSSFWRCKVLRRH)”, the “NPR-C binding affinity (Assay #1)” value (NPR-C) was 9363 ± 2067 and the “NPR-A binding affinity (Assay #1)” value (NPR-A) was 378 ± 136.

With hBNP Ser19Arg (SEQ ID NO: 4) (peptide) the affinity (NPR-C) [1] was 95500 and the affinity (NPR-A) [2] was 155.

“hBNP Ser19Arg Gly23Phe, Leu24Trp, Gly25Arg (SPKMVQGSGCFGRKMERIRSSSFWRCKVLRRH)” was tested, and the “NPR-C binding affinity (Assay #1)” value (NPR-C) was 172,400 ± 120,096 and the “NPR-A binding affinity (Assay #1)” value (NPR-A) was 287 ± 27.

“hBNP Gly23Phe, Leu24Trp, Gly25Arg (SEQ ID NO: 2) (peptide)” gave an affinity (NPR-C) [1] of 9360 and an affinity (NPR-A) [2] of 378.

In the case of hBNP Ser19Arg, the “NPR-C binding affinity (Assay #1)” value (NPR-C) is reported as 95,498 ± 14,603 and the “NPR-A binding affinity (Assay #1)” value (NPR-A) is reported as 155 ± 55.3.

SLRRSSCFGGRIDRIRAQSGLGCNSFRY [hANP Gly16Arg (SEQ ID NO: 52)] was tested, and the “affinity (NPR-A)” value [3] was 17.2 and the “affinity (NPR-C)” value [4] was 10600.

For SLRRSSCFGGRIDRIGAQSFWRCNSFRY [hANP Net12Ile, Gly20Phe, Leu21Trp, Gly22Arg (SEQ ID NO:50)], the “affinity (NPR-A)” value [3] was 507 and the “affinity (NPR-C)” value [4] was 295.

In the case of SLRRSSCFGGRIDRIGAQSGLGCNSFRY [hANP (SEQ ID NO: 51)], the “affinity (NPR-A)” value [3] is reported as 43.5 and the “affinity (NPR-C)” value [4] is reported as 198.

In the case of SPKMVQGSGCFGGRMDRIRSSSGLGCKVLRRH [hBNP Arg13Gly, Lys14Arg, Ser19Arg (SEQ ID NO:49)], the “affinity (NPR-A)” value [3] is reported as 518 and the “affinity (NPR-C)” value [4] is reported as 28400.

SPKMVQGSGCFGRKMERIRSSSFWRCKVLRRH [hBNP Ser19Arg, Gly23Phe, Leu24Trp, Gly25Arg (SEQ ID NO: 7)] gave an affinity (NPR-C) [1] of 172000 and an affinity (NPR-A) [2] of 287.
